# B1: APBB1IP (parent)
# chain: SQVSMWDQRWQDHQPLLPITDVP
# Variants of: B1
# Test: protein stability index of a GFP-peptide fusion (GPS, HEK-293T) (PSI 1-6); higher = more stable
# Settings: c terminus: native
# 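Further: lentivirally expressed fusions sorted by FACS into six bins by GFP to DsRed ratio, PSI derived from sequencing read proportions per bin multiplied by bin number.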
row,Variant,protein stability index
1,SLVSMWDQRWQDHQPLLPITDVP,1.5
2,SKVSMWDQRWQDHQPLLPITDVP,2.57
3,SWVSMWDQRWQDHQPLLPITDVP,1.72
4,SGVSMWDQRWQDHQPLLPITDVP,2.07
5,SEVSMWDQRWQDHQPLLPITDVP,3.32
6,SCVSMWDQRWQDHQPLLPITDVP,1.94
7,STVSMWDQRWQDHQPLLPITDVP,2.54
8,SVVSMWDQRWQDHQPLLPITDVP,2.33
9,SAVSMWDQRWQDHQPLLPITDVP,1.88
10,SFVSMWDQRWQDHQPLLPITDVP,1.31
11,SHVSMWDQRWQDHQPLLPITDVP,2.23
12,SRVSMWDQRWQDHQPLLPITDVP,1.66
13,SIVSMWDQRWQDHQPLLPITDVP,2.75
14,SQLSMWDQRWQDHQPLLPITDVP,2.04
15,SQDSMWDQRWQDHQPLLPITDVP,2.81
16,SQCSMWDQRWQDHQPLLPITDVP,1.91
17,SQASMWDQRWQDHQPLLPITDVP,3.18
18,SQWSMWDQRWQDHQPLLPITDVP,1.64
19,SQKSMWDQRWQDHQPLLPITDVP,2.34
20,SQESMWDQRWQDHQPLLPITDVP,2.9
21,SQQSMWDQRWQDHQPLLPITDVP,3.47
22,SQSSMWDQRWQDHQPLLPITDVP,2.84
23,SQFSMWDQRWQDHQPLLPITDVP,1.86
24,SQPSMWDQRWQDHQPLLPITDVP,2.8

row,Variant,protein stability index
1,SQISMWDQRWQDHQPLLPITDVP,2.23
2,SQMSMWDQRWQDHQPLLPITDVP,2.83
3,SQYSMWDQRWQDHQPLLPITDVP,2.27
4,SQHSMWDQRWQDHQPLLPITDVP,3.28
5,SQNSMWDQRWQDHQPLLPITDVP,2.49
6,SQRSMWDQRWQDHQPLLPITDVP,2.43
7,SQTSMWDQRWQDHQPLLPITDVP,2.34
8,SQVSMDDQRWQDHQPLLPITDVP,4.13
9,SQVSMEDQRWQDHQPLLPITDVP,4.03
10,SQVSMADQRWQDHQPLLPITDVP,3.27
11,SQVSMPDQRWQDHQPLLPITDVP,3.18
12,SQVSMLDQRWQDHQPLLPITDVP,3.09
13,SQVSMCDQRWQDHQPLLPITDVP,3.04
14,SQVSMGDQRWQDHQPLLPITDVP,2.95
15,SQVSMFDQRWQDHQPLLPITDVP,2.55
16,SQVSMKDQRWQDHQPLLPITDVP,3.24
17,SQVSMMDQRWQDHQPLLPITDVP,2.65
18,SQVSMRDQRWQDHQPLLPITDVP,3.29
19,SQVSMNDQRWQDHQPLLPITDVP,3.52
20,SQVSMHDQRWQDHQPLLPITDVP,2.51
21,SQVSMIDQRWQDHQPLLPITDVP,2.56
22,SQVSMQDQRWQDHQPLLPITDVP,3.48
23,TQVSMWDQRWQDHQPLLPITDVP,2.04
24,MQVSMWDQRWQDHQPLLPITDVP,1.96

row,Variant,protein stability index
1,PQVSMWDQRWQDHQPLLPITDVP,2.94
2,LQVSMWDQRWQDHQPLLPITDVP,1.36
3,DQVSMWDQRWQDHQPLLPITDVP,2.25
4,CQVSMWDQRWQDHQPLLPITDVP,2.69
5,EQVSMWDQRWQDHQPLLPITDVP,3.87
6,HQVSMWDQRWQDHQPLLPITDVP,2.46
7,YQVSMWDQRWQDHQPLLPITDVP,4
8,GQVSMWDQRWQDHQPLLPITDVP,2.03
9,NQVSMWDQRWQDHQPLLPITDVP,2.19
10,KQVSMWDQRWQDHQPLLPITDVP,1.76
11,VQVSMWDQRWQDHQPLLPITDVP,2.85
12,FQVSMWDQRWQDHQPLLPITDVP,1.92
13,IQVSMWDQRWQDHQPLLPITDVP,1.56
14,RQVSMWDQRWQDHQPLLPITDVP,2.23
15,WQVSMWDQRWQDHQPLLPITDVP,3.14
16,QQVSMWDQRWQDHQPLLPITDVP,2.36
17,SQVLMWDQRWQDHQPLLPITDVP,2.02
18,SQVMMWDQRWQDHQPLLPITDVP,2.57
19,SQVWMWDQRWQDHQPLLPITDVP,2.01
20,SQVTMWDQRWQDHQPLLPITDVP,2.23
21,SQVKMWDQRWQDHQPLLPITDVP,2.15
22,SQVVMWDQRWQDHQPLLPITDVP,2.49
23,SQVDMWDQRWQDHQPLLPITDVP,2.58
24,SQVPMWDQRWQDHQPLLPITDVP,2.73

row,Variant,protein stability index
1,SQVHMWDQRWQDHQPLLPITDVP,1.74
2,SQVEMWDQRWQDHQPLLPITDVP,3.8
3,SQVAMWDQRWQDHQPLLPITDVP,2.84
4,SQVQMWDQRWQDHQPLLPITDVP,4.05
5,SQVIMWDQRWQDHQPLLPITDVP,2.42
6,SQVYMWDQRWQDHQPLLPITDVP,2.42
7,SQVCMWDQRWQDHQPLLPITDVP,1.95
8,SQVNMWDQRWQDHQPLLPITDVP,2.92
9,SQVFMWDQRWQDHQPLLPITDVP,1.98
10,SQVSPWDQRWQDHQPLLPITDVP,3.15
11,SQVSVWDQRWQDHQPLLPITDVP,1.65
12,SQVSGWDQRWQDHQPLLPITDVP,2.37
13,SQVSTWDQRWQDHQPLLPITDVP,2.73
14,SQVSLWDQRWQDHQPLLPITDVP,2.77
15,SQVSNWDQRWQDHQPLLPITDVP,2.76
16,SQVSRWDQRWQDHQPLLPITDVP,3.34
17,SQVSAWDQRWQDHQPLLPITDVP,3.14
18,SQVSYWDQRWQDHQPLLPITDVP,2.17
19,SQVSKWDQRWQDHQPLLPITDVP,2.64
20,SQVSSWDQRWQDHQPLLPITDVP,2.5
21,SQVSDWDQRWQDHQPLLPITDVP,3.15
22,SQVSCWDQRWQDHQPLLPITDVP,1.52
23,SQVSIWDQRWQDHQPLLPITDVP,1.98
24,SQVSFWDQRWQDHQPLLPITDVP,1.89

# From the supplement of paper PMC10567573
